What was measured:
[1] = tested on: antibody-dependent cellular cytotoxicity or complement-dependent cytotoxicity; experiment: ADCC / CDC mediation; format: cell-based
Protocol: Currently, CFZ533/Iscalimab is in clinical development for inhibition of transplant organ rejection and therapy for autoimmune diseases.
(§1) mAb1 binds to human CD40 with high affinity (Kd of 0.3 nM).

human leukocytes = experiment: rCD154-induced activation of human leukocytes; format: cell-based
Protocol: as §1

[2] = tested on: T cell-dependent antibody responses (TDAR); experiment: In vivo T cell-dependent antibody responses and germinal centers
[3] = 13-week GLP rhesus monkey toxicity study; format: in vivo
Protocol: (§2) Inflammatory lesions in the kidneys and lungs of 2 animals at 50 mg/kg were noted, and in one of the two animals, lesions in the eyes and trachea were also noted. […] In view of these inflammatory findings, the No Observed Adverse Effect Level (NOAEL) for the 13-week toxicity study was set at 10 mg/kg. […] The NOAEL derived from the 26-week cynomolgus monkey study is considered the most relevant for supporting the clinical dosing regimen.
Adequate safety margin from preclinical toxicological studies: GLP toxicology studies to date have tested CFZ533 at (i) weekly s.c. dosing for 13 weeks at 10, 50, and 150 mg/kg (s.c. and i.v.) in rhesus monkeys, and (ii) weekly s.c. dosing for 26 weeks at 1, 50, and 150 mg/kg in cynomolgus monkeys.

CD40 = biological target: T1, CD40 (Homo sapiens, UniProt P25942); experiment: Phase 1 single-ascending dose study in healthy subjects and rheumatoid arthritis patients; format: in vivo; conditions: for safety and tolerability: interim
T1 construct: CD40 occupancy on peripheral B cells measuring free CD40 and total CD40; endogenous in cells; host or cells: peripheral / whole blood B cells of healthy subjects and rheumatoid arthritis patients (in vivo)
T1 sequence (P25942 21-277): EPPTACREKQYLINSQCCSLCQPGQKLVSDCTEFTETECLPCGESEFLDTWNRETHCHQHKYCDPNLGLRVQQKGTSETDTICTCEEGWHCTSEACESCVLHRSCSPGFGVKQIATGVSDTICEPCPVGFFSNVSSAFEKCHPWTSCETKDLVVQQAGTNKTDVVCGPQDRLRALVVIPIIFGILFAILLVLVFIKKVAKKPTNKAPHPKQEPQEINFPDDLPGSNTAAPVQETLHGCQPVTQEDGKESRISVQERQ
Protocol: The safety, tolerability, PK and PD activity of mAb1 are being assessed in an ongoing, randomized, double-blind, placebo-controlled, single-ascending dose study of mAb1 in healthy subjects and patients with rheumatoid arthritis (RA). A total of 48 subjects have been enrolled: 36 healthy subjects who received single doses of mAb1 up to 3 mg/kg IV or S.C., and 12 patients with RA, 6 of whom received single doses of mAb1 at 10 mg/kg IV. […] An investigation of the 30 mg/kg IV dose is ongoing in RA patients. As this study is still ongoing, all clinical data are preliminary in nature and based on interim analyses conducted up to a dose of 10 mg/kg in RA patients.
In healthy subjects as well as in patients with rheumatoid arthritis, after single IV or SC administration, CFZ533 PK profiles were consistent with target mediated disposition resulting in non-linear PK profiles and more rapid clearance when CD40 receptor occupancy dropped below approximately 90%. […]

[4] = tested on: NK cell-depleted PBMC cultures; experiment: EBV regression assay, complete or NK cell-depleted PBMC; format: cell-based, human; conditions: 14 days
Source text: (§3) FIG. 16 provides CD3^+ T cell counts from the NK cell-depleted PBMC regression assay after 14 days of culture measured by flow cytometry. Antibodies (in μg/mL) and CsA (in μM) were given in combination with EBV supernatants (except the negative control=medium w/o EBV). Dotted horizontal line was set to the condition ‘medium+EBV’. Data are shown as mean+SEM (n=4).
as §3, with “17” for “16”, “CD19^+ B cell counts from the PBMC regression assay after 14 days of culture measured by flow cytometry. Antibodies (in μg/mL) and CsA (in μM) were given in combination with EBV supernatants (except the negative control=medium w/o EBV). Dotted horizontal line was set to the condition ‘medium+EBV’. Data are shown as mean+SEM (n=4); and CD19^+ B” for “CD3^+ T”
All conditions except ‘medium w/o EBV’ were incubated with EBV supernatant and respective compound or antibodies. […] Looking at the CD19+ B cell proliferation (FIG. 3), there was an obvious increase in CD19+ B cell counts when PBMC were incubated with EBV supernatant compared to PBMC cultured with medium only (medium w/o EBV). […]

EBV infections = experiment: Clinical kidney transplantation data; format: in vivo, human; conditions: CNI-free therapy in kidney transplantation
[5] = in vivo
Protocol: as §2

whole blood cultures = whole blood cultures incubated for three days (Ristov 2018); cited from earlier work
kidney allografts = conditions: cited from earlier work
[6] = single dose of 3 mg/kg (IV and SC)

CFZ533: fully human monoclonal Fc-silent, non-depleting anti-CD40 antibody (IgG1/K); heavy chain SEQ ID NO: 9, light chain SEQ ID NO: 10
mediation of ADCC or CDC ([1]; listed as CFZ533/Iscalimab): incapable of mediating
mediation of ADCC or CDC ([1]; listed as mAb1): does not
rCD154-induced activation of human leukocytes (human leukocytes): inhibits
established germinal centers (GCs) [2]: can disrupt
primary and secondary T cell-dependent antibody responses (TDAR) [2]: blocks
No Observed Adverse Effect Level (NOAEL) ([3]; 13-week toxicity study): 10 mg/kg
major toxicology findings ([3]; weekly dosing 13 weeks at 10, 50, 150 mg/kg): did not reveal any major finding
disposition in Chinese subjects versus non-Chinese subjects (CD40; 3 mg/kg IV): generally similar
duration of target engagement (CD40; 3 mg/kg IV): about 4 weeks
duration of target engagement (CD40; 3 mg/kg SC): about 4 weeks
time of peak plasma concentration post-dose (CD40; 3 mg/kg SC, healthy subjects): 3 days
duration of full CD40 occupancy (CD40; 10 mg/kg IV, rheumatoid arthritis patients): 8 weeks
duration of target engagement (CD40; 30 mg/kg IV, rheumatoid arthritis patients): 16 weeks
decrease in total CD40 on peripheral B cells (CD40; healthy subjects): about 50%
rCD154-induced CD69 expression on B cells (CD40; human whole blood, during full CD40 occupancy): generally suppressed
extent of exposure (AUClast) versus dose (CD40; human, in vivo): increased more than the increase in dose
plasma concentration associated with full (>90%) CD40 occupancy on whole blood B cells (CD40; human, in vivo): 0.3 to 0.4 µg/mL
decrease in total CD40 on peripheral B cells (CD40; patients with rheumatoid arthritis): not confirmed
safety and tolerability (CD40; single 10 mg/kg, RA patients): safe and well tolerated
CD40 receptor occupancy below which clearance is more rapid (CD40; single IV or SC administration): approximately 90%
safety in Phase 1 study CCFZ533×2101 (CD40; single ascending doses 0.03 to 30 mg/kg i.v. and 3 mg/kg s.c.): did not reveal major safety concern
anti-KLH responses to the first KLH immunization (CD40; [6]): transiently suppressed
duration of full (>90%) receptor occupancy with anti-KLH suppression (CD40; [6]): 3-4 weeks
safety and tolerability (CD40; single doses up to 3 mg/kg, healthy volunteers): safe and well tolerated
CD19+ B cell counts [4]: decrease in CD19+ B cell counts compared to isotype control independently of NK cells
increased incidence of EBV infections (EBV infections): not observed
organ toxicities [5]: did not reveal any significant organ toxicities
thromboembolic events [5]: no evidence of thromboembolic events
effect on platelet aggregation (platelet aggregation): mild inhibitory effects
induction of platelet aggregation responses (platelet aggregation): does not induce
ADCC (whole blood cultures): no ADCC
peripheral B cell depletion (kidney allografts; in vivo): no significant peripheral B cell depletion
survival of kidney allografts (kidney allografts; non-human primates): can prolong survival
